Data as given in PMC12583524 (Nature Communications, 2025).

B1: C34 Fab (papain digestion of the mAb) (Fab, V domains shown)
VH: EVQLVESGGGLVQPGRSLRLSCAASGFTFDDYAMHWVRQAPGKGLEWVSGISWNSGSIGYADSVKGRFTISRDNAKNSLYLQMNSLRAEDTALYYCAKDMGYSGNDDYYGMDVWGQGTTVTVSS
VL: DIQLTQSPSSLSASVGDRVTITCRASQRISSYLNWYQQKPGKAPKLLIYGAFSLQSGVPSRFSGSGSGTDFTLTISSLQPEDFATYYCQQSYRTLTRTFGQGTKVEIK
B2: C34 IgG (antibody, V domains shown)
VH: B1 VH
VL: B1 VL
B3: C34 Fab (recombinant, His-tag on the heavy chain) (Fab, V domains shown)
VH: B1 VH
VL: B1 VL
B4: C37 Fab (papain digestion of the mAb) (Fab, V domains shown)
VH: QVQLQESGPGLVKPSETLSLTCTVSGGSIGSSSYYWGWIRQPPGKGLQWIGSFHYSGTTYYNPSLKSRVTISVDTSKNHFSLKLSSVTAADTAVYYCASRQNWNDGYFDYWGQGTLVTVSS
VL: DIQMTQSPATLSLSPGERATLFCRASQSVSSSLAWYQQKPGQAPRLLIYDASNRATGIPARFSGSGSGTDFTLTISSLEPEDFAVYYCQQRGNWPPITFGQGTRLDTK
B5: C37 Fab (recombinant, His-tag on the heavy chain) (Fab, V domains shown)
VH: B4 VH
VL: B4 VL
B6: C37 IgG (antibody, V domains shown)
VH: B4 VH
VL: B4 VL

What was measured:
[1] = target: recombinant CHIKV E1–E2 fusion protein (Chikungunya virus, sequence as …); experiment: SPR
[2] = target: T1, CHIKV VLP (strain 119067) (Chikungunya virus, strain 119067, UniProt A0A1I9WLN7); experiment: dynamic light scattering
[3] = target: T1, CHIKV VLP (strain 119067); experiment: cryo-EM structure

Binder | Kd [1] [nM] | binding result [2] | binding result [3]
B1 | < 1 |  | 
B2 |  | binds | 
B3 |  |  | binds
B4 | < 1 |  | 
B5 |  |  | binds
B6 |  | binds | 
